One molecule from patent publication US10662235B2, “Cysteine engineered fibronectin type III domain binding molecules” (Janssen Biotech, Inc., priority 2016, dated 2020) can be followed below.

Bounds are passed on as bounds.

The target in the assay is T1, EGFR on A431 cells (Homo sapiens, UniProt P00533).
T1 construct: A431 cells (American Type Culture Collection, cat. # CRL-1555) over-express EGFR; host or cells: A431
Kind of assay: A431 cell binding assay. Particulars: purified FN3 domains. The procedure: To assess the ability of different FN3 domains to bind EGFR in a more physiological context, their ability to bind A431 cells was measured. A431 cells (American Type Culture Collection, cat. # CRL-1555) over-express EGFR with ˜2×10^6 receptors per cell. Cells were plated at 5,000/well in opaque black 96-well plates and allowed to attach overnight at 37° C., in a humidified 5% CO2 atmosphere. FN3 domain-expressing bacterial lysates were diluted 1,000-fold into FACS stain buffer (Becton Dickinson) and incubated for 1 hour at room temperature in triplicate plates. Lysates were removed and cells were washed 3 times with 150 μL/well of FACS stain buffer. Cells were incubated with 50 μL/well of anti-penta His-Alexa488 antibody conjugate (Qiagen) diluted 1:100 in FACS stain buffer for 20 minutes at room temperature. Cells were washed 3 times with 150 μL/well of FACS stain buffer, after which wells were filled with 100 μL of FACS stain buffer and read for fluorescence at 488 nm using an Acumen eX3 reader. […]
A431 cells were plated at 5,000/well in opaque black 96-well plates and allowed to attach overnight at 37° C., in a humidified 5% CO2 atmosphere. […] Cells were washed 3 times with 150 μL/well of FACS stain buffer, after which wells were filled with 100 μL of FACS stain buffer and read for fluorescence at 488 nm using an Acumen eX3 reader. […]

B1: P54CR4-31: EGFR-binding FN3 domain, SEQ ID NO: 26 (protein)
chain: LPAPKNLVVSEVTEDSLRLSWTAPDAAFDSFLIQYQESEKVGEAINLTVPGSERSYDLTGLKPGTEYTVSIYGVLGSYVFEHDVMLPLSAEFTT
modifications: EGFR binding FN3 domain
For orientation: EC50 means the concentration at which the effect is half-maximal. The molecule B1 returned an EC50 greater than 20 µM.
